B1: B. maritima: methyl halide transferase from Batis maritima, SEQ ID NO: 3 (protein, listed as Batis maritima)
chain: MSTVANIAPVFTGDCKTIPTPEECATFLYKVVNSGGWEKCWVEEVIPWDLGVPTPLVLHLVKNNALPNGKGLVPGCGGGYDVVAMANPERFMVGLDISENALKKARETFSTMPNSSCFSFVKEDVFTWRPEQPFDFIFDYVFFCAIDPKMRPAWGKAMYELLKPDGELITLMYPITNHEGGPPFSVSESEYEKVLVPLGFKQLSLEDYSDLAVEPRKGKEKLARWKKMNN

Assays:
S. cerevisiae W303a = assay: Methyl iodide toxicity assay in yeast; format: cell-based; settings: W303a lab strain, OD600 at 24 hours of growth, commercially available CH3I added
Source text: (§1) FIG. 11A-D: Methyl iodide production in recombinant S. cerevisiae. FIG. 11A. CH3I production pathway. The B. maritima MHT is expressed with a N-terminal vacuole targeting tag. The […] MHT methylates iodide ions using SAM as a methyl donor. FIG. 11B, CH3I measured in culture headspace over time. Activity on glucose-grown cells is shown. FIG. 11C, CH3I yields in grams per liter of culture per day. Values for the culturable red algae E. muricata are taken from the literature. Yields from B. maritima MHT-expressing E. coli and S. cerevisiae are calculated by comparison to standard curves. FIG. 11D, CH3I toxicity in yeast. Exponential phase cultures were diluted to an OD600 of 0.05 and commercially available CH3I was added. OD600 was measured at 24 hours of growth. The W303a lab strain is shown in filled boxes, the DNA methylation-sensitive RAD50Δ mutant is shown in open boxes.
(§2) Individual colonies were inoculated in YP media with 2% glucose and grown overnight. Cultures were diluted to an OD600 of 0.05 and methyl iodide was added to the specified amount. […] OD600 was measured by spectrometry with YP media used as a blank. Each data point was performed in triplicate. The RAD50Δ mutant was obtained from the Saccharomyces Genome Deletion Project (Invitrogen).

RAD50Δ mutant = format: cell-based, S. cerevisiae; settings: RAD50Δ mutant compared with W303a, OD600 at 24 hours
Source text: as §1, §2

E. coli [1] = settings: library of 89 genes, 100 mM sodium halide salt, headspace GC-MS
Experimental: Methyl halide production was sampled by analyzing the headspace gas using GC-MS (Supplementary Information).
Bacteria carrying MHT expression vectors were inoculated from freshly streaked plates and grown overnight. Cells were diluted 100-fold into media containing 1 mM IPTG and 100 mM appropriate sodium halide salt. Culture tubes were sealed with a rubber stopper and grown at 37 degrees for 3 hours. Yeast carrying MHT expression vectors were streaked on uracil dropout plates from freezer stocks (15% glycerol) and grown for 48 hours. Individual colonies were inoculated into 2 mL of synthetic complete uracil dropout media and grown overnight at 30 degrees. Cultures were next inoculated into 100 mL fresh synthetic complete uracil dropout media and grown for 24 hours. […] 10 mL of this concentrated culture was aliquoted into 14 mL culture tubes and sealed with a rubber stopper. Cultures were grown at 30 degrees with 250 rpm shaking.

S. cerevisiae W303 = assay: Methyl iodide production by vacuole-targeted MHT in yeast; format: cell-based; settings: N-terminal carboxypeptidase Y tag versus cytosolic enzyme, vector pCM190
Source text: In one approach, for illustration and not limitation, the coding sequence of B. maritima methylchloride transferase (MCT) is synthesized and cloned into a high copy vector under the control of a tet-repressible CYC promoter (plasmid pCM190, Gari et al, 1997, Yeast 13:837-48.). The MCT coding sequence is fused to a N-terminal peptide domain from carboxypeptidase Y known to target pendant proteins to the yeast vacuole (amino acid sequence: […] (SEQ ID NO:1), Valls et al., 1990, J Cell Biol. 111:361-8.) This expression system is transformed into S. cerevisiae strain W303a. […] Cultures are grown at 30 degrees with 250 rpm shaking, and methyl iodide production assayed at specified intervals via GC-MS. […] Oven temperature is programmed from 50 degrees (1 min) to 60 degrees (10 degrees/min).
We fused a 16 amino acid vacuolar targeting tag ([…]) from yeast carboxypeptidase Y to the N-terminus of the B. maritima MCT and expressed the enzyme from the vector pCM190. […] We next expressed the cytosolic and vacuolar targeted enzymes in a VPS33A background, which is unable to form functional vacuoles.

E. coli [2] = tested on: E. coli
Experimental: Methyl halide production can be measured by gas chromatography. In the experiments described below an Agilent gas chromatography/mass spectrometry (GC/MS) system was used. Most often the “AIR.U” tune file, uses an ionization voltage of 1341. In some experiments an ionization voltage of about 1250 was used. A solvent delay of 0 was set and the scan parameters set to 15-100 MW. The injection port and column were preset to 50° C. The sample to be tested was mixed by shaking for a few seconds. 100 μL of the headspace gas was extracted with a gas-tight syringe. The sample gas was manually injected into the GCMS injection port. The GCMS program was started with the following settings: 1:00 at 50° C.; a ramp of 10° C. per min to 70° C. (the sample typically came off at ˜52° C.); 1:00 at 70° C. The column was then cleaned (ramp to 240° C. for 2 minutes). The sample peak was identified by extracting the GC peak corresponding to 50MW (−0.3, +0.7). This peak was integrated to produce the “GC 50MW” data.
For each strain a single colony was picked and grown overnight (10-14 hrs) in 20 mL of LB miller in a 30 mL glass test tube with aeration (a loose cap) at 37 C and 250 rpm shaking. The culture was spun down in a swinging bucket centrifuge for 5 min @3000×g. […]

Molecule	level up to which yeast were resistant to deleterious methylating effects of methyl iodide (S. cerevisiae W303a) [µg/mL]	sensitivity to methyl iodide (RAD50Δ mutant)	methyl halide activity on chloride, bromide and iodide (E. coli [1])	increase in methyl iodide production rate by targeting to the vacuole (S. cerevisiae W303) [%]	methyl bromide production (E. coli [2]; 165 mM NaBr, 100 uM IPTG, 1.5 hours, headspace GC/MS)	specificity of methyl halide production (E. coli [2]; methyl bromide versus methyl iodide)
CI [methyl iodide]	> 5000	increased sensitivity				
B1			highest activity of all genes on each ion	50	best	significant specificity for methyl bromide production

Source: patent US9657279B2, “Biological systems for production of commercially valuable compounds” (priority 2007, dated 2017)
